The assay deals with T1, fibrinogen (species not stated); biotinylated fibrinogen on streptavidin plates in the phage ELISA, free … (Homo sapiens (Human), UniProt P02671 20-644); P02675 31-491; P02679 27-437, Biotinylated at unstated positions in the phage ELISA and unlabelled in the anisotropy assay. The native molecule is a disulfide-linked dimer of the three chains, (A-alpha B-beta gamma)2, and is …).
T1 construct: also called Fgn; fibrinogen target
T1 sequence (alpha): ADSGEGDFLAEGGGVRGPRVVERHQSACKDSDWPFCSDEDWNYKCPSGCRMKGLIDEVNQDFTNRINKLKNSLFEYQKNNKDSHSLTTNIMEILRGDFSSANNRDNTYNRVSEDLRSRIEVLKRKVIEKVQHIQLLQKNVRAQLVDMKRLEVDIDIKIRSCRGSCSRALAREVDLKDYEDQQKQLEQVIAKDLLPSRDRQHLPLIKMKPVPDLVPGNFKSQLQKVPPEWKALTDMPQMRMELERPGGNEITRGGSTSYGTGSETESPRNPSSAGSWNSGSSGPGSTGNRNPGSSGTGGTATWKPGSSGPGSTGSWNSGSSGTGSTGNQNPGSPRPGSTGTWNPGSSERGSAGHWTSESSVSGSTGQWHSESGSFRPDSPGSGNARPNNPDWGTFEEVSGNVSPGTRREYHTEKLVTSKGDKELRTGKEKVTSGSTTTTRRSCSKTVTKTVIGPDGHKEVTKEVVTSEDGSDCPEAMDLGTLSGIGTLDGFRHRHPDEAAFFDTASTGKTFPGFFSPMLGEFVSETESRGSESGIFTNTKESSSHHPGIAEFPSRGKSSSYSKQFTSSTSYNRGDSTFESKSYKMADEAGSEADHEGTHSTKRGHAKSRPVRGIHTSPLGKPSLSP
T1 sequence (beta): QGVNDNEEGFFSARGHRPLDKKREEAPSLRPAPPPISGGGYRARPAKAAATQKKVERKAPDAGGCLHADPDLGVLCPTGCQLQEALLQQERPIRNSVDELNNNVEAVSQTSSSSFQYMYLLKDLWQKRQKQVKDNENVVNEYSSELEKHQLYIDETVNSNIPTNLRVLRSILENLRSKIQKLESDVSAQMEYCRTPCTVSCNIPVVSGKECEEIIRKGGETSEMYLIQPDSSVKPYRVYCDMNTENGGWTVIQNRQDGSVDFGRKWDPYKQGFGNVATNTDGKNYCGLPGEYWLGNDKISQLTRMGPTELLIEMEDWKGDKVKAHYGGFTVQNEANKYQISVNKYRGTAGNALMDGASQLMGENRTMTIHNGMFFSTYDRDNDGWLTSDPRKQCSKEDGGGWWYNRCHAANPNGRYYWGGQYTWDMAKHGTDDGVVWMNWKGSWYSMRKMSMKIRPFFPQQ
T1 sequence (gamma): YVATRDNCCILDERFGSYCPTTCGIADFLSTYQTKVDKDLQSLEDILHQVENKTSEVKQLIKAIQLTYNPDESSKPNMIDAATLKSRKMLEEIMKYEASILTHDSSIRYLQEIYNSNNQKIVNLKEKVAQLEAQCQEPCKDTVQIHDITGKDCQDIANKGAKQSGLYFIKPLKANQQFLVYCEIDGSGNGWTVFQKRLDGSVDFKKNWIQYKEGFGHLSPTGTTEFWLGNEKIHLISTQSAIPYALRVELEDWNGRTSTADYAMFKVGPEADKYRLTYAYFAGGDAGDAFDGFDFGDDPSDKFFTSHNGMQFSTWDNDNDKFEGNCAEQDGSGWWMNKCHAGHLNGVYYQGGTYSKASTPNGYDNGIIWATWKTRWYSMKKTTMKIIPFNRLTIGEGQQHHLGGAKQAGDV
Description: fluorescence anisotropy, 20 nM fluorescein-labeled peptide, fibrinogen varied, 30° C., 1:1 fit. As for the experimental part:
An apparent dissociation constant was determined for a selected polypeptide. For this determination, the polypeptide was labeled on the C-terminal end with NHS-fluorescein. Fluorescence anisotropy measurements were performed in 384-well microplates in a volume of 10 μl in binding buffer using a Tecan Polarion fluorescence polarization plate reader. The concentration of fluorescein labeled peptide was held constant (20 nM), and the concentration of fibrinogen was varied. The polypeptide was tested in the same binding buffer as used in the selection. The binding mixture was equilibrated for 10 minutes in the microplate at 30° C. prior to performing the measurement. The observed change in anisotropy was fit to the equation below via nonlinear regression to obtain the apparent KD. This equation assumes that the polypeptide and fibrinogen form a reversible complex with 1:1 stoichiometry.

In patent US20030207330A1 (DYAX, published 2003) one finds Kd data, which are given here for one molecule.

Broadly, the Kd is the concentration at which binding is half-saturated. A higher Kd goes with weaker binding.

fluorescein = fluorescein label, attached with NHS-fluorescein

B1: fluorescein-labeled synthetic polypeptide based on the TN10/IX polypeptide of SEQ ID NO: 43 (peptide)
peptide: Ac-LYLCNSYPMHPYCNPSGGGK(fluorescein)-NH2
modifications: cysteine pairing not given here; also: retained phage-derived N- and C-terminal dipeptides, which ones not given here
notes: Commercial FMOC solid phase synthesis; also called selected polypeptide; not shown: retained phage-derived N-terminal dipeptide (Gly-Ser-, Ala-Gly- or Gly-Asp-); retained phage-derived C-terminal dipeptide (-Ala-Pro, -Gly-Thr or -Asp-Pro)
The molecule B1 yielded a Kd of 2000 nM.
